In this assay the test system is intracellular proteome of ENR+CD and ENR organoids. The assay can be described thus: LC-MS/MS TMT proteomics of ENR+CD versus ENR organoids. Format: cell-based, C57BL/6 mice. As to conditions: for Average logFC: ENR+CD versus ENR organoids, sample pairs in aggregate (n=4, 2 technical replicates from two biological donors); for M1-1 Log2 Median Normalized / M1-2 Log2 Median Normalized / M2-1 Log2 Median Normalized / M2-2 Log2 Median Normalized: protein abundance ratio ENR+CD versus ENR organoids, LC-MS/MS TMT proteomics; for M1-1 Log2 Median Normalized: sample pair M1-1; for M1-2 Log2 Median Normalized: sample pair M1-2; for M2-1 Log2 Median Normalized: sample pair M2-1; for M2-2 Log2 Median Normalized: sample pair M2-2; for change: up = enriched in ENR+CD, down = enriched in ENR, FDR<0.05 and log fold change cut-off.

B1: Q9CWY4 (protein, UniProt Q9CWY4 1-129, looked up)
chain: MQSPLTIPVPVPVLRLPRGPDGFSRGFASDGRRTILRPEVGEGHIQDPPESQEQRARATLRERYLRSLLAMVGHPVSFTLHEGVHVTAQFGATDLDVANFYVSQLQTPIGVQAEALLRCSDIISYSFKL
modifications: full-length
Consider B1, for which the “Average logFC” value was −1.168, the “M1-1 Log2 Median Normalized” value is −0.742, the “M1-2 Log2 Median Normalized” value was −0.855 and the “M2-1 Log2 Median Normalized” value is given as −1.6895. Moreover, the “M2-2 Log2 Median Normalized” value is recorded as −1.387 and the change result was “down”.

B2: Q9CQU5 (protein, UniProt Q9CQU5 1-252, looked up)
chain: MADAEKNAVAEKNNAVATKEVLAEAAAILEPVGLQEEAELPAKIMEEFMRNSRKKDKLLCSQLQVVNFLQTFLAQEDTEQSPDALASEDASRQKATETKEQWKDMKATYMDHVDVIKCALSEALPQVKEAHRKYTELQKAFEQLEAKKRVLEEKLQLAQKQWVLQQKRLQNLTKISAEVKRRRKRALEKLDGSHQELETLKQQAGQEQEKLQRNQSYLQLLCSLQNKLVISEGKAEDKDVKGRALTAKSKSP
modifications: full-length
Consider B2, for which the “Average logFC” value was −1.13, the “M1-1 Log2 Median Normalized” value is reported as −1.159, the “M1-2 Log2 Median Normalized” value is −0.699 and the “M2-1 Log2 Median Normalized” value is given as −1.1625. In addition, the “M2-2 Log2 Median Normalized” value is reported as −1.13 and the change entry is recorded as “down”.

B3: Q921T2 (protein, UniProt Q921T2 1-595, looked up)
chain: MAGERWQAEGPGEGWAIYVTPRAPIREGRRRLDPRNGDSSDAPAYGAHPSRRGRREVRFSEEPAEVYGDFEPRAAKERSPGGRRTPPEKFRPASAGEEVRESAYNLRSRPRRQRRAQEAEEMKTRRSARLEQHSQQPQLSPATSGRGLRDSPSSSEDREEDEPSSRPVTSQTASKKTLRTPEASVMNEDPISNLCRPPLRSPRLDSTYQTNGNTKTNEREATIVQQVNFFEEGETEDDLESSYSDITIRARSSDSLESRDEATPAAGNHPDSLRGLPHNQDFPAHENQPLLLTSGCQENPQEWVDRAVRMRSRMAYNNIQKSNFGNQSPSTSRPQSAIHHPNEPSVKIKWWLLGLVAILAVGLFWFFHTPAVETTAVQEFQNQMKQLQSKYQSQNEKLWKRGTTFLEKHLNSSLPRPQPAILLLTAAQDAAEVLKCLSEQIADAYSSFRSVRAIRIDGAGKAAQDSDLVKHEVDQELTDGFKNGQNAAVVHRFESLPAGSTLIFYKYCDHENAAFKDVALVLTVLLEEKTLEASLGLKEIEEKVRDFLKVKFTSSSTASSYNHMDPDKLNGLWSRISHLVLPVQPENTLKAGSCL
modifications: full-length
Consider B3, for which the “Average logFC” value stood at 1.217, the “M1-1 Log2 Median Normalized” value is reported as 1.233, the “M1-2 Log2 Median Normalized” value amounted to 1.176 and the “M2-1 Log2 Median Normalized” value came out at 1.0935. Also, the “M2-2 Log2 Median Normalized” value was 1.365 and the change entry is on record as “up”.

B4: Q99LZ3 (protein, UniProt Q99LZ3 1-223, looked up)
chain: MTEVLDLHGQDSDGGSEEMVLTPAELIEKLEQAWMNEKFAPELLESKAEIVECVMEQLEHMEENLRRAKKGDLKVSIHRMEMERIRYVLSSYLRCRLMKIEKFFPHILEKEKVRSEGEPSSLSPEEFVFAKEYMDHTETHFKNVALKHMPPNLQKVDLLRAVPKPDLDSYVFLRVKERQENILVEPEADEQRDYVIDLEVGSQHLIRYKTIAPLVASGAVQLI
modifications: full-length
For B4, the “Average logFC” value is recorded as −1.212, the “M1-1 Log2 Median Normalized” value is −1.61, the “M1-2 Log2 Median Normalized” value is given as −1.013 and the “M2-1 Log2 Median Normalized” value was −0.7435. Further, the “M2-2 Log2 Median Normalized” value is −1.481 and the change entry is given as “down”.

B5: Q99M54 (protein, UniProt Q99M54 1-266, looked up)
chain: MGSTQSVSGTPARPLPRNKQVARVADPRSPSAGIQRTPIQVESSPQPSLPAEQLNGLKQAQDPDPRSPTLGIARTPMKISGPDPQCSLVKELSEVLETEASESISSPELALPRETPLFYDLDLSSDPQLSPEDQLLPWSQAELDPKQVFTKEEAKQSAETIAASQNSDKPSRDPETPQSSGSKRSRRKANSKVLGRSPLTILQDDNSPGTLTLRQGKRPSALSENVKDLKEGVVLGTGRFLKAGGGAREPNQDHDKENQHFALLES
modifications: full-length
In the case of B5, the “M1-1 Log2 Median Normalized” value is given as −1.383, the “M1-2 Log2 Median Normalized” value was −1.488, the “M2-1 Log2 Median Normalized” value was −0.4185 and the “M2-2 Log2 Median Normalized” value is reported as −1.548. In addition, the change entry is reported as “down”.

B6: Q99M01 (protein, UniProt Q99M01 1-451, looked up)
chain: MVCLALVRAAYEHIYLVRKVSHACRCHQHRAWSSKPAASQSAVQGAPGSVLEILGKSYPQDDHTNLTQKVLSKVGRNLHNQKFHPLWLIKERVKEHFYQQYMVRSRTPLFSVYDQLPPVVTTWQNFDSLLIPADHPSRKKGDNYYLNRAHMLRAHTSAHQWDLLHAGLNAFLVVGDVYRRDQIDCQHYPVFHQLEGVRLFSKHELFAGVKDGESLQLFEEGSRSAHKQETHTMEAVKLVEFDLKQVLTRLVTHLFGDGLEVRWVDCYFPFTHPSFEMEINFRGEWLEVLGCGVMEQQLVNSAGAQDRIGWAFGLGLERLAMVLYDIPDIRLFWSEDERFLKQFLLSDINQSVKFQPLSKYPAVFNDISFWLPSENYTENDFYDIVRTVGGDLVEKVDLIDKFEHPKTHRTSHCYRITYRHMERTLSQREVGNVHQAVQEAAVQLLGVEGRF
modifications: full-length
For the molecule B6, the “Average logFC” value is reported as −1.171, the “M1-1 Log2 Median Normalized” value is −0.869, the “M1-2 Log2 Median Normalized” value is listed as −0.578 and the “M2-1 Log2 Median Normalized” value was −1.7495. Moreover, the “M2-2 Log2 Median Normalized” value is recorded as −1.486 and the change result is recorded as “down”.

B7: Q9CVI2 (protein, UniProt Q9CVI2 1-245, looked up)
chain: MGKRDNRVAYMNPIAMARSRGPIQSSGPTIQDYLNRPRPTWEEVKEQLEKKKKGSKALAEFEEKMNENWKKELEKHREKLLSGNESSSKKRQKKKKEKKKSGRYSSSSSSSSDSSSSSSDSEDEDKKQTKRRKKKKSRCHKSPESSGSDSASDSKDGSKKKKKSKDVTEREKDTKGLSKKRKMYEDKPLSSESLSESDCGEVQAKRKKSGEERERTTDKAKKRRKHKKHSKKKKKKAASSSSDSP
modifications: full-length
On to B7, for which the “Average logFC” value is −1.186, the “M1-1 Log2 Median Normalized” value was −1.385, the “M1-2 Log2 Median Normalized” value is −1.072 and the “M2-1 Log2 Median Normalized” value is given as −1.0115. Besides, the “M2-2 Log2 Median Normalized” value is recorded as −1.275 and the change entry was “down”.

B8: Q99PG0 (protein, UniProt Q99PG0 1-398, looked up)
chain: MGKTISLLISVVLVAYYLYIPLPDAIEEPWKVVWETAFVKIGTDLASFGELLGISHFMETIQLLMSFQEVPPTSDEHVTVMETAFDSVPVRIYIPKRKSMALRRGLFYIHGGGWCLGSAAHFSYDTLSRWTAHKLDAVVVSTDYGLAPKHHFPRQFEDVYRSLRWFLQEDVLEKYGVDPRRVGVSGDSAGGNLAAAVTQQLIQDPDVKIKLKVQALIYPALQALDTNVPSQQEGSHFPVLTRSLMVRFWSEYFTTDRGLEKAMLLNQHVPMESSHLLQFVNWSSLLPERYKKSPVYKNPTPGSSELAQKYPGFIDVKACPLLANDNILHHLPKTYIITCQYDVLRDDGLMYVKRLQNVGVHVTHHHVEDGFHGTFSFPGLKLSERMKNQYLSWLIKNL
modifications: full-length
With B8, the “M1-1 Log2 Median Normalized” value is −1.606, the “M1-2 Log2 Median Normalized” value is reported as −1.392, the “M2-1 Log2 Median Normalized” value is recorded as −2.1105 and the “M2-2 Log2 Median Normalized” value was −1.558. Also, the change result was “down”.

B9: Q9CPY1 (protein, UniProt Q9CPY1 1-128, looked up)
chain: MAGSVPWAASRRLWGWVPSACRSFSLGVPRLAFVRLTLPPPKVVDRWNEKRALFGVYDNIGILGNFEKHPKELIKGPVWLRGWRGNELQRCVRKKKFVGNRMFIEDLHNLNKRISYLYKHFNRHGKYR
modifications: full-length
Take B9: the “Average logFC” value was −1.278, the “M1-1 Log2 Median Normalized” value is −0.801, the “M1-2 Log2 Median Normalized” value was −0.766 and the “M2-1 Log2 Median Normalized” value was −2.0015. Further, the “M2-2 Log2 Median Normalized” value was −1.543 and the change entry was “down”.

B10: Q921X9 (protein, UniProt Q921X9 1-517, looked up)
chain: MARAWGLLLAIGVVLPTWLSSTKVSSLIERISDPKDLKKLLRTRNNVLVLYSESEVAAESHLKLLSTVAQAVKGQGTVCWVDCGDAESRKLCKKMKVDLSPKDKKIELFHYQDGAFHMQYDRAVTLKSIVAFLKDPKGPPLWEEDPGAKDVVHIDSEKDFRRLLKREEKPLLMMFYAPWCSMCKRIMPHFQKAATQVRGHIVLAGMNVYPSEFENIKEEYNVRGYPTICYFEKGRFLFPYENYGSTAEDIVEWLKNPLPPQPQVPETPWADEGGSVYHLTDEDFDQFVKEHSSVLVMFHAPWCGHCKKMKPEFESAAEVLHGDAESSGVLAAVDATVNEALAGRFHISAFPTLKYFKNGEQQAVPALRTKKKFIEWMQNPEAPPPPEPTWEEQQTSVLHLVGDNFRDTLKKKKHTLVMFYAPWCPHCKKVIPHFTATADAFKEDRKIACAAVDCVKDKNQDLCQQEAVKAYPTFHYYHYGKLVEKYESDRTELGFTSFIRTLREGDLKRLEKRREEL
modifications: full-length
With B10, the “Average logFC” value was determined as 1.302, the “M1-1 Log2 Median Normalized” value was found to be 1.535, the “M1-2 Log2 Median Normalized” value is listed as 1.138 and the “M2-1 Log2 Median Normalized” value came out at 1.0115. In addition, the “M2-2 Log2 Median Normalized” value was found to be 1.523 and the change entry is listed as “up”.

B11: Q99LD8 (protein, UniProt Q99LD8 1-285, looked up)
chain: MGTPGEGLGRCSHALIRGVPESLASGEGAGAGLPALDLAKAQREHGVLGGKLRQRLGLQLLELPPEESLPLGPLLGDTAVIQGDTALITRPWSPARRPEVDGVRKALQDLGLRIVEMGDENATLDGTDVLFTGREFFVGLSKWTNHRGAEIVADTFRDFAVSTVPVSGSSHLRGLCGMGGPRTVVAGSSEAAQKAVRAMAALTDHPYASLTLPDDAASDCLFLRPGLPGATPFLLHRGGGDLPNSQEALQKLSDVTLVPVSCSELEKAGAGLSSLCLVLSTRPHC
modifications: full-length
Take B11: the “Average logFC” value came out at 1.289, the “M1-1 Log2 Median Normalized” value is on record as 1.314, the “M1-2 Log2 Median Normalized” value was 1.577 and the “M2-1 Log2 Median Normalized” value was determined as 1.1265. Besides, the “M2-2 Log2 Median Normalized” value came to 1.14 and the change entry is recorded as “up”.
